Results reported in patent US20170192009A1.

How the values were obtained:
[1] = biological target: sfGFP; experiment: flow cytometry of permeabilized IT cells, treated with sfGFP; GFP channel [panel sfGFP]
[2] = biological target: GFP-hIL6 fusion protein (N-terminal 6x His-tag, mGFP, gs linker, human interleukin-6), purified (human); experiment: flow cytometry of permeabilized IT cells, treated with mGFP-IL6; GFP channel [panel IL-6]
[3] = biological target: GFP-hIL6 fusion protein (N-terminal 6x His-tag, mGFP, gs linker, human interleukin-6), purified (human); experiment: flow cytometry of permeabilized IT cells treated with GFP-IL6
[4] = biological target: GFP-hIL6 fusion protein (N-terminal 6x His-tag, mGFP, gs linker, human interleukin-6), purified (human); experiment: flow cytometry of permeabilized E. coli IT cells displaying the binder-mRFP-CBD on inclusion bodies, treated with GFP-IL6; GFP channel

Row | Substance | GFP fluorescence value [1] | GFP fluorescence value [2] | GFP fluorescence [3] | GFP fluorescence value [4]
1 | negative control (f) | 15.2 | 26.2 | – | –
2 | InVLR5c-mRFP-CBD fusion protein (In-VLR5c repebody fused to mRFP and family II CBD, displayed on inclusion bodies in permeabilized E. coli IT cells) (designed binder) | – | – | 10 | 17
